# Experimental data taken from patent CN114573691A (EIGHT HOSPITALS IN AFFILIATED CITY OF GUANGZHOU MEDICAL; …, dated 2022).
# B1: 中和抗体YB13-208 (antibody, V domains shown)
# V domain 1: QITLKESGPTLVKPTQTLTLTCTFSGLSLSTSGVSVGWIRQPPGKAPEWLALIYWDDDKRYSPSLTSRLSITKDTSKNQVVLTMTNMDPVDTATYYCAHPRYYGDSSGYYWIWGQGTMVTVSS
# V domain 2: SYELTQPPSVSVSPGQTARITCSGDALPKQYAYWYQQKPGQAPVVVMYKTSERPSGIPERFSGSSSGTTVTLTISGVQAEDEADYYCQSADSSGFYVFGTGTQVTVL
# B2: 中和抗体YB9-258 (antibody, V domains shown)
# VH: EVQLVESGGGLIQPGGSLRLSCAASGLTVSSNYMHWVRQAPGKGLEWVSVLYAGGSAFYADSVKGRFTISRNNSKNTLYLQMNSLRAEDTAIYYCARGLGDYLDSWGQGTLVTVSS
# VL: DIQMTQSPSSVSASVGDRVTITCRASQGIGSWLAWYQQKPGKAPQLLIYAASTLQSGVPPRFSGSGSGTDFTLTITSLQPEDFASYYCQQANSVLALTFGGGTKVEIK
# Molecular target: 新冠病毒SARS-CoV-2原始毒株(WT)S1抗原 (SARS-CoV-2, UniProt P0DTC2 16-685)
row,Binder,Kd [pM]
1,B1,82
2,B2,71.7
